Measurements: the supplement of paper PMC7877785
± gives the uncertainty stated by the source.

Experiment: self-splicing fitness, log relative to wild type (ln ratio); higher = more splicing; Tetrahymena group I intron in knt gene, E. coli kanamycin selection, DiMSum; sequences stand for … in CUCUCU…GGAGGGAAAAGUUAUCAGGCAUGCACCUGGUAGCUAGUCUUUAAACCAAUAGAUUGCAUCGGUUUAAAAGGCAAGACCGUCAAAUUGCGGGAAAGGGGUCAACAGCCGUUCAGUACCAAGUCUCAGGGGAAACUUUGAGAUGGCCUUGCAAAGGGUAUGGUAAUAAGCUGACGGACAUGGUCCUAACCACGCAGCCAAGUCCUAAGUCAACAGAUCUUCUGUUGAUAUGGAUGCAGUUCACAGACUAAAUGUCGGUCGGGGAAGAUGUAUUCUUCUCAUAAGAUAUAGUCGGACCUCUCCUUAAUGGGAGCUAGCGGAUGAAGUGAUGCAACACUGGAGCCGCUGGGAACUAAUUUGUAUGCGAAAGUAUAUUGAUUAGUUUUGGAGUACUCGUGGUCG
Method in brief: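 Six replicate transformations of E. coli BL21(DE3) with a pET-22b(+) library were grown overnight at 37°C or 30°C. The library randomised all eight P1ex-region intron nucleotides, the intron lying in the knt kanamycin-resistance gene, and plates were LB agar with or without 25 μg/mL kanamycin plus 100 μg/mL carbenicillin, 50 μM IPTG and 0.2% rhamnose. Pooled colonies were amplicon-sequenced on an Illumina HiSeq 2500, and fitness is the DiMSum error-weighted combination of wild-type-normalised replicate fold changes, kanamycin versus none.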

Sequence | self-splicing fitness (ln) (30 °C) | self-splicing fitness (ln) (37 °C)
UGGAAGCAAUAUUACGGCUU | -2.94 ± 0.32 | -1.73 ± 0.45
UGGAAGCAAUAUUACGGGCU | -3.13 ± 0.27 | -1.32 ± 0.2
UGGAAGCAAUAUUACGGUUA | -1.04 ± 0.11 | -0.0733 ± 0.099
UGGAAGCAAUAUUACGUCAA | -1.53 ± 0.12 | -0.758 ± 0.13
UGGAAGCAAUAUUACGUCAG | -0.777 ± 0.12 | -0.119 ± 0.16
UGGAAGCAAUAUUACGUCAU | -2.99 ± 0.35 | -3.01 ± 0.3
UGGAAGCAAUAUUACGUGAA | -1.33 ± 0.096 | -1.65 ± 0.12
UGGCAGCAAUAUUACGAAAG | -2.17 ± 0.14 | -1.19 ± 0.13
UGGCAGCAAUAUUACGACCC | 0.0617 ± 0.19 | -0.655 ± 0.18
UGGCAGCAAUAUUACGACUU | 0.0485 ± 0.093 | 0.468 ± 0.1
UGGCAGCAAUAUUACGAUGA | -0.639 ± 0.12 | -0.971 ± 0.14
UGGCAGCAAUAUUACGAUGC | -3.93 ± 0.28 | -2.65 ± 0.41
UGGCAGCAAUAUUACGCAAG | -3.83 ± 0.18 | -2.44 ± 0.18
UGGCAGCAAUAUUACGCCCA | -1.66 ± 0.15 | 0.585 ± 0.24
UGGCAGCAAUAUUACGCCUA | -0.238 ± 0.21 | 0.697 ± 0.42
UGGCAGCAAUAUUACGCGAU | -2.67 ± 0.18 | -2.01 ± 0.21
UGGCAGCAAUAUUACGCGGC | -4.17 ± 0.29 | -2.23 ± 0.26
UGGCAGCAAUAUUACGCGUC | -3.54 ± 0.37 | -2.21 ± 0.3
UGGCAGCAAUAUUACGCGUG | -1.25 ± 0.14 | -0.356 ± 0.14

Sequence | self-splicing fitness (ln) (30 °C) | self-splicing fitness (ln) (37 °C)
UGGCAGCAAUAUUACGCUCA | -0.353 ± 0.13 | 0.629 ± 0.18
UGGCAGCAAUAUUACGGACC | -2.02 ± 0.33 | -0.716 ± 0.24
UGGCAGCAAUAUUACGGAUU | -3.95 ± 0.24 | -1.88 ± 0.2
UGGCAGCAAUAUUACGGCCG | -3.49 ± 0.16 | -1.77 ± 0.16
UGGCAGCAAUAUUACGGCGA | 0.0623 ± 0.12 | 0.97 ± 0.13
UGGCAGCAAUAUUACGGCUC | -0.609 ± 0.082 | -0.683 ± 0.11
UGGCAGCAAUAUUACGUAUU | -2.73 ± 0.12 | -1.27 ± 0.11
UGGCAGCAAUAUUACGUCCA | -1.23 ± 0.12 | -0.471 ± 0.16
UGGCAGCAAUAUUACGUCUU | -0.0989 ± 0.044 | 0.494 ± 0.059
UGGCAGCAAUAUUACGUUAU | -2.25 ± 0.11 | -1.91 ± 0.16
UGGCAGCAAUAUUACGUUGG | -2.33 ± 0.11 | -0.227 ± 0.13
UGGGAGCAAUAUUACGAUGU | -3.95 ± 0.33 | -2.53 ± 0.3
UGGGAGCAAUAUUACGAUUG |  | -2.29 ± 0.4
UGGGAGCAAUAUUACGCACG | -3.26 ± 0.37 | 
UGGGAGCAAUAUUACGCCGA | -0.637 ± 0.4 | -0.137 ± 0.24
UGGGAGCAAUAUUACGCCUA | -2.63 ± 0.44 | -1.75 ± 0.32
UGGGAGCAAUAUUACGCGAG | -1.25 ± 0.19 | -2.26 ± 0.27
UGGGAGCAAUAUUACGCUUA | -2.55 ± 0.11 | -0.767 ± 0.098
UGGGAGCAAUAUUACGCUUG | -1.62 ± 0.23 | 0.249 ± 0.23
